Source: patent US8202696B2, “Means for use in treating diseases correlated with or caused by non-physiological levels of microtubule-associated PP2Ac” (Max-Planck-Gessellschaft zur Forderung der Wissenschaften …, priority 2002, dated 2012)
Entries after “also recorded” stand apart in the source; their conditions may differ.

Assays:
Format in all cases: cell-based
patched gene = experiment: Patched-specific semiquantitative RT-PCR of HeLa cells; details: compared to mock-transfected cells
Method: One of the most important targets of the Gli3 transcription factor is the patched gene. In order to analyse HeLa cells for Gli3 activity after treatment with the different molecules, semiquantitative RT-PCR of cells overexpressing the B-Box1 and the α4 protein was carried out (FIG. 13). HeLa cells have previously been tested for Gli3-, Gli1 (another target of the Gli3 transcription factor) and patched-expression.

Gli3 [1] = experiment: Localization of overexpressed GFP-tagged Gli3 in HeLa cells; details: GFP-tagged Gli3-overexpressing HeLa cells
Method: 1×10^5 HELA cells per well of a 6-well plate were transfected with Qiagen Polyfect transfection reagent according to the manufacturer's instructions. The ratio of the amount of DNA to the amount of polyfect transfection reagent was 3 μg DNA/10 μl Polyfect. Constructs used for expression in HELA were the following: GFP-GLI3 (aa 18-1549), GLI3-GFP (aa 1-1522), MYC-GLI3 (aa 18-1596), FLAG-GLI3 (aa18-1596), MYC-B-BOX1 (aa 110-167 of the MID1 protein), ALPHA4-V5 (aa 1-339). 24 h after transfection immunofluorescence was performed. GFP-constructs were treated as described in Schweiger et al., 1999. Immunofluorescence with MYC-tagged and FLAG-tagged constructs was done according to Trockenbacher et al., 2001. FLAG-tagged constructs were detected with anti-FLAG-antibody diluted 1:500, the secondary antibody FITC-antimouse was diluted 1:1000. For MYC-tagged constructs anti-MYC-antibody 1:300 and CY3-antirabbit 1:1000 were used. […]
Overexpressed Gli3 is predominantly localized in the nucleus (FIG. 10, top left).

PP2A [2] = experiment: Ubiquitin-dependent regulation of PP2A in embryonic fibroblasts, Western blot; details: OS-derived cells
Method: Tissue culture. We obtained embryonic fibroblasts from the Max-Planck Institute for Cell Biology (Ladenburg, Germany) and purchased COS7 cells from the American Type Culture Collection (ATCC). Establishment of an embryonic fibroblast cell line from an OS-affected fetus has been described previously^4. We transfected COS7 cells following the Clontech protocol using LipofectACE. Expression was optimal 24-48 h after transfection. […] We determined integration copy number by Southern blot analysis. […]
For proteasome inhibition, we incubated embryonic fibroblasts with varying concentrations (10-50 μM) of LLnL (Sigma) for 2 h or with 10 μM of lactacystin (Sigma) for 5 h. […] Protein concentrations were determined with a Bradford assay. […]
For embryonic fibroblasts, we lysed 8×10^6 cells in IP1 buffer. […] We carried out densitometric quantification using the PCB computer program.
To obtain direct evidence for ubiquitin-dependent regulation of cytosolic PP2A, we analyzed amounts of cytosolic PP2A in embryonic fibroblasts, previously shown to contain large amounts of endogenous MID1 (ref. 2), after treatment with the proteasome inhibitor LLnL (FIG. 4b).

PP2A [3] = experiment: Cytosolic PP2A in 293 cells expressing MID1-V5, Western blot; details: 293 cells expressing MID1-V5 versus control cells
Method: Immunoprecipitation, western blotting and immunofluorescence. For COS7 cells, we lysed in IP1 buffer 8×10^6 cells transfected with pBudCE4 vector carrying the respective cDNAs. After preclearing the lysate with 50 μl protein A-agarose (slurry), we incubated supernatants with 2 μg anti-V5 overnight at 4° C. and then for 2 h with 75 μl (slurry) protein A-agarose. After three washes in IP1 buffer, we eluted the proteins with 1× Laemmli buffer at 95° C. MID1-V5 expression was optimal 48 h after doxycyclin removal from 293 tet-off cell lines. We then lysed cells in IP1 buffer and carried out immunoprecipitation with 2 μg anti-V5. We boiled proteins in 1×SDS-PAGE buffer, separated them on 10% and 12% SDS gels, blotted on PVDF membranes (Roche) and blocked and incubated with the respective primary antibody according to the manufacturer's instructions.
If so, increased MID1 expression should coincide with a decrease of cytosolic PP2A. To test this hypothesis, we analyzed lysates containing equal amounts of protein from 293 cells expressing MID1-V5 (FIG. 4a, lane1) and control cells (FIG. 4a, lane 3) by western blotting with a polyclonal antibody that detects the C subunit of PP2A.

Gli3 [4] = experiment: Localization of GFP-GLI3 in cultured U373MG cells; details: 24 hours after transfection, 100 cells counted
Method: COS7-HELA- and U373MG-cells were transfected using PolyFect Transfection Reagent (Qiagen, cat. no. 301107) according to the manufacturer's instructions. Gli3 cDNA was cloned into pEGFP-C1 and pEGFP-N3 vectors (Clontech) respectively. 100 transfected cells per experiment (Gli3-GFP, GFP-Gli3, Gli3-GFP+myc-MID1, GFP-Gli3+myc-MID1, Gli3-GFP+myc-BBox1, GFP-Gli3+myc-BBox1) were counted and analysed for Gli3 localization. Experiments were repeated twice. […] PCMV-Tag3 vector from Stratagene was used for myc-MID1 and myc-BBox1 overexpression.

Molecule | patched message (patched gene) | Gli3 localization (Gli3 [1]) | PP2Ac amount after transfection (PP2A [2]) | Cytosolic phosphatase 2A level (PP2A [3]) | GFP-GLI3 localization (Gli3 [4])
α4: regulatory subunit of PP2A encoded by human IGBP1, overexpressed (protein, UniProt P78318 2-339, looked up, V5 tag, regulatory subunit of PP2A encoded by human IGBP1, overexpressed) Immunoglobulin-binding …: AAEDELQLPRLPELFETGRQLLDEVEVATEPAGSRIVQEKVFKGLDLLEKAAEMLSQLDLFSRNEDLEEIASTDLKYLLVPAFQGALTMKQVNPSKRLDHLQRAREHFINYLTQCHCYHVAEFELPKTMNNSAENHTANSSMAYPSLVAMASQRQAKIQRYKQKKELEHRLSAMKSAVESGQADDERVREYYLLHLQRWIDISLEEIESIDQEIKILRERDSSREASTSNSSRQERPPVKPFILTRNMAQAKVFGAGYPSLPTMTVSDWYEQHRKYGALPDQGIAKAAPEEFRKAAQQQEEQEEKEEEDDEQTLHRAREWDDWKDTHPRGYGNRQNMG | increased amount of PCR-product; also recorded: increase of the patched message | significant release of GFP-Gli3 to the nucleus |  |  | 
MID1: RING-finger protein that interacts with the α4 subunit of microtubule associated PP2Ac; overexpressed from cDNA (protein, left off: large carriers, overexpressed from cDNA) METLESELTCPICLELFEDPLLLPCAHSLCFNCAHRILVSHCATNESVESITAFQCPTCRHVITLSQRGLDGLKRNVTLQNIIDRFQKASVSGPNSPSETRRERAFDANTMTSAEKVLCQFCDQDPAQDAVKTCVTCEVSYCDECLKATHPNKKPFTGHRLIEPIPDSHIRGLMCLEHEDEKVNMYCVTDDQLICALCKLVGRHRDHQVAALSERYDKLKQNLESNLTNLIKRNTELETLLAKLIQTCQHVEVNASRQEAKLTEECDLLIEIIQQRRQIIGTKIKEGKVMRLRKLAQQIANCKQCIERSASLISQAEHSLKENDHARFLQTAKNITERVSMATASSQVLIPEINLNDTFDTFALDFSREKKLLECLDYLTAPNPPTIREELCTASYDTITVHWTSDDEFSVVSYELQYTIFTGQANVVSLCNSADSWMIVPNIKQNHYTVHGLQSGTKYIFMVKAINQAGSRSSEPGKLKTNSQPFKLDPKSAHRKLKVSHDNLTVERDESSSKKSHTPERFTSQGSYGVAGNVFIDSGRHYWEVVISGSTWYAIGLAYKSAPKHEWIGKNSASWALCRCNNNWVVRHNSKEIPIEPAPHLRRVGILLDYDNGSIAFYDALNSIHLYTFDVAFAQPVCPTFTVWNKCLTIITGLPIPDHLDCTEQLP |  |  | normalizes the amount of PP2Ac | downregulated | No change
